The text below walks through data of the DeepSol protein solubility set.

This data set can be described thus: soluble on expression in E. coli; label from the status in PepcDB or PDB records.
Turning to “MGSDKIHHHHHHMKLLYFKEHLSCINYQINVNTGFVYYNLEKDSVSKIDNSASPCILFLLDGEVSIDSGEYQNVHIEKDKMVLIPQHVDNKIEVIYDAKCLLLFWNKDIRVCDKVYMNSLSSYKERKKEMCVLPIRDPLQAVLNSVVAYLYAKMQCKHMHLIKQQEVLLVLRGYYTKKELFTFFSSILGNTGHFEDFVMNNYRKVKSVKEFAGLYCTSERSFNRKFQNCFKESPYQWMQKKKAELIREKISESDTPFQEIAMDFDFNSQAHFTSYCKRLFGMTPSKLRTESKKVAPDLEY”, the “soluble on expression in E. coli” value is “not soluble”.

For “MGSDKIHHHHHHMKLSYVTDSLGHLPFEDMLNFAAKLGIDTLEMTTGGWSPAPHLNLDELLQSSEKRKEFSQALEKRNMTLCALNCSGNPLDPGELGKSHRDITDKTMELAGLLGVKKVIMMSGLPAGGPDDKVPNWITYTVSWPPVLKDILNYQWEDVAIPYWKKLVKKAEACGVGKIALENFSSQLVYNPETLFRLRNAVGPMVGLNLDPSHLLWMGADPIIAARELGSAIHHVHGKDVRIERYLSAVNGLLETKEVTDPANRAWNYVAVGCGQDLQWWKEFFSVVKMMGYEGEVSLEMEDLTMSPEAGIRTSVEALKQTISQ”, the “soluble on expression in E. coli” value is recorded as “not soluble”.

As to “MGSDKIHHHHHHMKMNWTGAAHQLNKQGKAYVIATIVGVTGSTPRNSGTKMVITHDDIFDTIGGGHLEHKVIKHAHQLLMAGDDCQQLEHFQLGAQLGQCCGGNASVLFESFSASGVNIMLFGAGHVGKALMPILAGLPCSITWVDSRADQFPDDAGNYHNVTTLVSENPAEEVALMPTNSYYIVMTHNHQLDFEISHNTLKRADFAYLGLIASDTKWRRFQQRFQHRDIAKSLVEKMNCPIGLPQVQGKLPMEVAVSVAGEIIQLYQAELASQALANPSANKQKDAKPQSTKQGIAWQELKSLMTEEVS”, the “soluble on expression in E. coli” value is recorded as “not soluble”.

As to “MGSDKIHHHHHHMKNFVLDTNVLLYDPQAIFKFEENNIIIPITVIEEVDRFKKDMNETGRNARQVSRYLDDMRKIGSLSSGITLETGGMLRVEMYEEKIMKRLPPELREERGDNRILAVAVKILEENGGAPVVFVTKDTNLRIKADAIGLKAEDYESDKVDIEELYPGFTEIDVAADTVDRFHGQGWVELPGQTFFPNQCVTLRDEANPSHTALGKYRVGDGKITPLIKTGKEGVWSIFPRNREQAFAFDLLLDDSIKLVTLVGKAGTGKTLLAIAAGLHKTAEENVFNRLLVSRPVFPMGRDLGFLPGDIEEKLAPWMQPIFDNVELLLSGHEAEKRHSKGYKELMAMGIMEIEPLTYIRGRSIPNQFMIVDEAQNLTPHEIKTIITRAGEGTKIVLTGDPYQIDNPYVDASSNGLTYVVERFKEQAIAGHVTMTKGERSDLAELAANLL”, the “soluble on expression in E. coli” value is listed as “not soluble”.

In the case of “MGSDKIHHHHHHMKPDLSSHLVLGERPDGRTLITARWVLAWRDGGHALIPDGEIVVDRNEVLYAGPRFEGDVARRIDFGTALVSPGLIDLDALSDLDTYLLVHDNQPGWAKGRIWPRSYVESGPYEMYSAEELAFQKRFAFGLLLLNGITTAAPIASLYYRQWAETVAEFEAAADAAGDLGLRVFLSPAYRSGGMILEGPGRIEPAFDEPRGLQGLADAIDFIERNHGRHNGLVNGMLAPDRIETCTLHLLQRTMAAARDLDCRVRIHMAQGNLELETMRRLHGVSAPQWLADHGLMSERLIAPHGTYASPQDLQLYAQHGVSIAHSPLVSARMGSILNSFAACRSLGINIGMATDTAPPDMLMNLLVGLIACRIGEKTSDAVFSKDLFDAATLGGAKALGRRDLGRLAAGAKADIAVFRLDDVHMTPSVDPVTTLVVGGSGKVTQAVFVDGRLSMLDGKVAGIDMIAAREQAQQQYDGLIAKYPDRSWRHPPVGKIFSPSYPVWKIQ”, the “soluble on expression in E. coli” value is “not soluble”.

As to “MGSDKIHHHHHHMKQILFMDTTLRDGEQSPGVNLNEQEKLQIARQLERLGIHVMEAGFAAASEGDFQSVKRIANTIQNATVMSLARAKESDIRRAYEAVKGAVSPRLHVFLATSDIHMKYKLCMSKEDVLDSIHRSVTLGKSLFPTVQFSAEDATRTARDFLAEAVEVAIRAGANVINIPDTVGYTNPEEYYSLFKYLQESVPSYEKAIFSCHCHDDLGMAVANSLAAVEGGALQVEGTINGIGERAGNAALEEVAVALHIRKDFYQAEPSMTLKEIKATSTLVSRLTGMVVPKNKAIVGANAFAHESGIHQDGVLKEVTTYEIIEPELVGESQNLFVLGKHSGRHAFTEKMKELGYEFTTEERDAVFEAFKKLADRKKEITEEDLRALMLGEAAFAAQQYNITQLQVHFVSNSTQCATVVLKDEEGNVFEDAATGSGSIEAIYNAIQRILGLECELADYRIQSITQGQDALAHVHVELKEGTHQVSGFGVAQDVLEASARAYVHAAGKLKSFIQLVK”, the “soluble on expression in E. coli” value is given as “not soluble”.

In the case of “MGSDKIHHHHHHMKQLTMPLTALALFTLGGCVTNSDLDVVRRDLDELKNRQFQVEKEVGGVRTEATARIESSFKDLDTERAGVRKGLADLQAAMDGIKVDMQVLAGKVDDVGLAAKKPGDDLILLREDLERRLTAFDQRLAKAETGIEALQKKVAEQAPSPKETEKPTPEALYQKGLDAYRAGNYGVARESFTRFLEQHPKHELAANARYWTGETYYSEKKFEQAILEFQEVIKNYPGKEKVPAAMLKQAAAFSEIGDAKSARFVLRKLADDYPSSEEAKRAKDRLKELK”, the “soluble on expression in E. coli” value was “not soluble”.

With “MGSDKIHHHHHHMKQPLAHRMRPTNIQEIIGQQHLVGEGKILWRMVQANHFQSMILYGPPGTGKTSIASAIAGSTGTPFRLLNAVTHNKKDMEVVVQEAKMHRHLVLILDEVHRLDKAKQDFLLPHLESGLLTLIGATTSNPFHAINSAIRSRCQIFELHALTEDDLLIGLKRALEDKEKGLGEYDVTVTPEALHHFANASGGDMRSAYNALELAVLSSFTTDDKAAEITLEIAEECLQKKSFVHDKGGDAHYDVLSAFQKSVRGSDVNAALHYLARLIEAGDLQSIGRRLLIMAYEDIGLASPQAGPRTLAAIESAERVGFPEARIPLANAVIELCLSPKSNSAYKALDAALHDLRNGQTGDIPSHLKDSHYKGAEALGRGIGYLYPHDHPNGWVQQQYLPDKIKNKQYYKPKMTGKFEQALSTVYERLQSSNKTKNKG”, the “soluble on expression in E. coli” value was “not soluble”.

“MGSDKIHHHHHHMKRIRNISVVGMGAVGCAYGRKLYKLNPNNFKIIADDKRKEKLTKNGFLINGEKYDFKCVSPNENLGKDDLIIIAVKYNQLEEAIEEIRNYVGENTIILSFLNGIKSEEEIGKVYGMDKILYSYCVLESTRKGSEVYVSDGYKIVFGQKESDNKYEKIKAVRELFDDAEIDYEIPVDIIHSMWSKFMFNVGINPVSAILKANYGMLQKNKYARETMVSAMMEVINISQKASVNLKIEEINHWLAVLDECELHGKTSMCQDILMGRKTEIDMLSGEVCALGEKYGVDTPVNRTLFNMVKSIE”: the “soluble on expression in E. coli” value is recorded as “not soluble”.

On to “MGSDKIHHHHHHMKRISQQELESYLWGAAVLLRGLIDAGDYKQFIFPLLFYKRVSDVWDEEYQAALANSGGDLSYAQFAENHRFQIPAGAHWNDVRQTPKNVGAAIQKAMRAIESANPDLLDGIFGDAPWTNRERLPDETLKNLIEHFSTQTLSVANVPEDELGNAYEYLIKKFADDSGHTAAEFYTNRTVVHLMTQLLAPQAGESIYDPTCGTGGMLISALDEVKRAGGEYRTLKLYGQERNLITSSIARMNLFLHGVEDFEIIRGDTLAEPKHIEGDRLRQFDVILANPPYSIKQWNREAWSSDKWGRNSLGTPPQGRADYAFQQHILTSLTAKGRCAVLWPHGVLFRNEEQSMRAKMVEQDWVEAVIGLGPNLFYNSPMESCIVICNRKKAAARKGKVIFIDAVNEVARERAQSFLKPEHQQRILTAYKTFADVPGFAKVATLAEIGANAGNLSIPLYVKRIAAAIATDSNDDAVSLRSAWDQWQADGRAFWQQMDALVETLDGLVAQEAADA”, for which the “soluble on expression in E. coli” value was “not soluble”.

Take “MGSDKIHHHHHHMKRLRVTLAQLNPTLGDFEGNLKKAIEALRVAEDRGSDLLVFPELFLPGYPPEDLMLRLSFLRENRKYLQKFAQHTRNLGVTVLMGFIDSDEDAYNAAAVVKDGEILGVYRKISLPNYGVFDERRYFKPGEELLVVKIGNIKVGVTICEDIWNPVEPSASLSLGEGVHLIANLSASPYHVGKPVLRKDYLSMKAYDYHVAMAYCNMVGGQDELVFDGGSMVVDASGEVINYGKLFEEEIITVDLDLDENLRVSLVDPRRRYMKTQNYPVKTVEAGNLREKSGHFEPVVNPLPVREEEMFRALITGLRDYVRKNGFEKVVIGLSGGMDSSLVAVIATEALGKENVKGVLMPSMYTSKESIEDAQTLAKNLGIETFIIPITDVFHSYLETLKGVFAGREPDITEENLQARIRGNYLMALSNKFGWLVLTTGNKSEMATGYATLYGDMAGGFAVIKDVYKTDVYRIGRWYNSWRGKEIIPENIFVKPPTAELRPGQTDQEKLPPYEVLDEILRLYIEEGLDPEEIASKGFDRKTVLDVTEMIRKNEYKRKQAAIGVKISTRAFGKDWRMPITNRFKEPL”: the “soluble on expression in E. coli” value is on record as “not soluble”.

“MGSDKIHHHHHHMKRLSPEVFKVPIDRIRNGYYSDIYFINYVKVLKRDSRHPRVYYQFFPRKDAVICGIDEALAILKFCTGYYKDEEKARELFEEILKLDKEMQAASVEMDVQKILELTQKKWDLRLKLNDLWVDKWDEIEVHALYDGEEAKEGEPIMTIEGDPTYFGYLETVLLGVIARATSTATAVKKVVKAARGKPVLFFSARFDHYWVQATDGYAALKAGAFGVSTDANADYWGVKSMGTMPHALIACYDGKTEDAAIAFDRHMEEDVNRIVLVDWDNDVIGTTFRVIEKFYEYVMKKPFKLGVTDPSPIIGPGKNKIWGVRFDTSGNLRDKSVVPKDESSFGVCPELVWRARQEFDKVGLRDLKIVVSGGFDEKKIDLFERLGVPADAYGVGSRLLREKVDITADIVEVNGRHCAKVGRYKIENPRLKKVGKRYWEEE”: the “soluble on expression in E. coli” value is given as “not soluble”.

For the sequence “MGSDKIHHHHHHMKRMSCLLLGGLLLSGCGKEEAPPEPIRPVVFVEAQPESMQDFGRFAGNIQARYQSVLGFRVAGRIARRNVDVGSEVKKGDLLATLDPTDQQNNVRGRQGDLANVQAQWINAQANARRQQELFDRGVGAQAQLDVALTDLKTASSSLEQAKAAEQQARDQLSYSELHSDHDAVVTEWKVEAGQVVTAGQEVVTLARPDIKEAVIDLPDALADQLPRDVVFTVASQLNPDINTTATIREIEPQADRTTRTRRTRLSLAETPVAFRLGTAISVTLSSTITARMRLPINALQEVDGKRQIWIVDPQSQTVNPRAVNITSRDNDSFVLADGVKAGEKVVSAGVNSLKPGQKVKVDEESPR”, the “soluble on expression in E. coli” value was “not soluble”.

With “MGSDKIHHHHHHMKSCLYFTFIVLFLTACSTKNLTSLHRENLEQKNENQHYVKLEYEQNVNILPQFAYDINFDAKRYKKYFFNPWHDSFKNYKGQNIFWSFPLYLNSKNTYYFFNKQIIPLSWFKNAINNANIQEFGKLNQKALIIQNTIIKNLPTQRAILKNPFFENEGIPFDYASDGILNTGAPVLISHFSKDKRYAFVLGEAGFGFVESKNLEFFSNDRAKIYENLNFITPLKEKFAIYSEDGKFLFESRIGAIYPYYKEDKNYFYGKIGSKKYKISKKDVSKFPLQFNDKNLKNQLSQVLNLPYGWGGYNFERDCSLLTRDIFSAFGLYLPRNSAAQKNSFNHFDISTLSNSQKKDFLNRFGKAYLSLLYLPGHIMLYAGQITDNNIAIHNIWGLRKDATQRLLISSSVITSLEIGKNEILEDNLLLSRLKEISFINLNEQEKEQIKSYLENIQNK”, the “soluble on expression in E. coli” value is “not soluble”.

Consider “MGSDKIHHHHHHMKSPCILLIIVCTLSLTGCASTKQADSDSSLGKAQQTLDSLYQHYSAKDSYLLRENYPFNEQYKVTYLASENQTNMPNQFSYLWPYSGTFSAVNSLLEATHDKKYQQLLEKQVLPGLEEYFDTERTPIAYSSYIRTAPTSDRFYDDNIWVGIDFIDIYQITKEKKYLDKAQLIWNFIESGTDSLLGDGIYWCEQKKESKNTCSNAPGSVFALKLFKATNDSLYFKRGKELYKWTQKNLQDSTDYLYFDNIRLDGKIGKAKFAYNSGQMMQSAALLYQLTKNPDYLKDAQSIAKECYNYFFTDFTTDTGESLKMLKQGNIWFTAVMLRGFIELYQLDQNKTFIDAFNQCLSYAWDNARDENGLFSTDLTGNNNNEKKWLLTQAAMVEMYSRLATIQ”, for which the “soluble on expression in E. coli” value is “not soluble”.
